The record followed here is the Human Domainome abundance scans (Beltran et al. 2025).

± gives the uncertainty stated by the source.

The nature of the data set: abundance fitness (aPCA) (normalised: wild type 0, dead -1); higher = more abundant; growth selection in yeast, the domain comes from the species named. Conditions: Homo sapiens.
Substance “Scaffold attachment factor B1 I77L, Q15424” came in with an abundance fitness of -0.227 ± 0.064.

The substance “Scaffold attachment factor B1 I77M, Q15424” returned an abundance fitness of -0.305 ± 0.087.

Consider “Scaffold attachment factor B1 I77N, Q15424”, for which the abundance fitness was -0.235 ± 0.073.

In turn, “Scaffold attachment factor B1 I77P, Q15424” displayed an abundance fitness of -0.381 ± 0.096.

Turning to “Scaffold attachment factor B1 I77Q, Q15424”, the abundance fitness was -0.262 ± 0.077.

In turn, “Scaffold attachment factor B1 I77R, Q15424” registered an abundance fitness of -0.156 ± 0.055.

For the substance “Scaffold attachment factor B1 I77S, Q15424”, the abundance fitness was -0.08 ± 0.051.

As to “Scaffold attachment factor B1 I77V, Q15424”, the abundance fitness was -0.163 ± 0.066.

Regarding “Scaffold attachment factor B1 I77W, Q15424”, the abundance fitness is -0.119 ± 0.053.

“Scaffold attachment factor B1 K45A, Q15424” gave an abundance fitness of -0.013 ± 0.27.

In turn, “Scaffold attachment factor B1 K45R, Q15424” had an abundance fitness of 0.218 ± 0.2.

In the case of “Scaffold attachment factor B1 K45V, Q15424”, the abundance fitness is -0.929 ± 0.46.

Substance “Scaffold attachment factor B1 K54A, Q15424” returned an abundance fitness of -0.181 ± 0.061.

With “Scaffold attachment factor B1 K54C, Q15424”, the abundance fitness was -0.361 ± 0.063.

In the case of “Scaffold attachment factor B1 K54D, Q15424”, the abundance fitness is -0.329 ± 0.075.

For “Scaffold attachment factor B1 K54E, Q15424”, the abundance fitness was -0.207 ± 0.079.

Substance “Scaffold attachment factor B1 K54F, Q15424” had an abundance fitness of -0.249 ± 0.062.

“Scaffold attachment factor B1 K54G, Q15424”: the abundance fitness is -0.234 ± 0.05.

Regarding “Scaffold attachment factor B1 K54H, Q15424”, the abundance fitness was -0.401 ± 0.11.

The substance “Scaffold attachment factor B1 K54I, Q15424” returned an abundance fitness of -0.271 ± 0.077.

For “Scaffold attachment factor B1 K54L, Q15424”, the abundance fitness is -0.28 ± 0.048.

With “Scaffold attachment factor B1 K54M, Q15424”, the abundance fitness was -0.443 ± 0.087.

As for “Scaffold attachment factor B1 K54N, Q15424”, the abundance fitness was -0.444 ± 0.075.

In turn, “Scaffold attachment factor B1 K54P, Q15424” returned an abundance fitness of -0.25 ± 0.082.

With “Scaffold attachment factor B1 K54Q, Q15424”, the abundance fitness was -0.115 ± 0.066.

Turning to “Scaffold attachment factor B1 K54R, Q15424”, the abundance fitness is -0.063 ± 0.047.

“Scaffold attachment factor B1 K54S, Q15424” gave an abundance fitness of -0.259 ± 0.072.

On to “Scaffold attachment factor B1 K54T, Q15424”, for which the abundance fitness is -0.189 ± 0.057.

For the substance “Scaffold attachment factor B1 K54V, Q15424”, the abundance fitness was -0.221 ± 0.049.

“Scaffold attachment factor B1 K54W, Q15424” displayed an abundance fitness of -0.255 ± 0.056.

“Scaffold attachment factor B1 K54Y, Q15424” registered an abundance fitness of -0.157 ± 0.059.

Consider “Scaffold attachment factor B1 K62A, Q15424”, for which the abundance fitness is -0.073 ± 0.052.

Substance “Scaffold attachment factor B1 K62C, Q15424” had an abundance fitness of -0.27 ± 0.057.

In turn, “Scaffold attachment factor B1 K62D, Q15424” yielded an abundance fitness of -0.403 ± 0.089.

In turn, “Scaffold attachment factor B1 K62E, Q15424” registered an abundance fitness of -0.287 ± 0.053.

In turn, “Scaffold attachment factor B1 K62F, Q15424” came in with an abundance fitness of -0.366 ± 0.078.

In turn, “Scaffold attachment factor B1 K62G, Q15424” had an abundance fitness of -0.191 ± 0.048.

“Scaffold attachment factor B1 K62H, Q15424”: the abundance fitness was -0.211 ± 0.066.

“Scaffold attachment factor B1 K62I, Q15424” yielded an abundance fitness of -0.336 ± 0.078.

Substance “Scaffold attachment factor B1 K62L, Q15424” returned an abundance fitness of -0.204 ± 0.054.

Turning to “Scaffold attachment factor B1 K62M, Q15424”, the abundance fitness is -0.254 ± 0.078.

The substance “Scaffold attachment factor B1 K62N, Q15424” returned an abundance fitness of -0.231 ± 0.096.

The substance “Scaffold attachment factor B1 K62P, Q15424” displayed an abundance fitness of -0.728 ± 0.065.

“Scaffold attachment factor B1 K62R, Q15424” showed an abundance fitness of -0.089 ± 0.048.

The substance “Scaffold attachment factor B1 K62T, Q15424” came in with an abundance fitness of -0.212 ± 0.072.

Consider “Scaffold attachment factor B1 K62V, Q15424”, for which the abundance fitness is -0.246 ± 0.052.

In turn, “Scaffold attachment factor B1 K62W, Q15424” displayed an abundance fitness of -0.366 ± 0.065.

For “Scaffold attachment factor B1 K62Y, Q15424”, the abundance fitness is -0.285 ± 0.087.

“Scaffold attachment factor B1 K63A, Q15424” displayed an abundance fitness of -0.202 ± 0.053.

“Scaffold attachment factor B1 K63C, Q15424” registered an abundance fitness of -0.234 ± 0.048.

Regarding “Scaffold attachment factor B1 K63D, Q15424”, the abundance fitness was -0.255 ± 0.094.

In turn, “Scaffold attachment factor B1 K63F, Q15424” came in with an abundance fitness of -0.432 ± 0.061.

Regarding “Scaffold attachment factor B1 K63H, Q15424”, the abundance fitness was -0.541 ± 0.1.

With “Scaffold attachment factor B1 K63I, Q15424”, the abundance fitness is -0.394 ± 0.09.

For the substance “Scaffold attachment factor B1 K63L, Q15424”, the abundance fitness is -0.237 ± 0.044.

“Scaffold attachment factor B1 K63M, Q15424” gave an abundance fitness of -0.43 ± 0.07.

In turn, “Scaffold attachment factor B1 K63P, Q15424” came in with an abundance fitness of -0.61 ± 0.054.

In turn, “Scaffold attachment factor B1 K63Q, Q15424” yielded an abundance fitness of -0.085 ± 0.079.

“Scaffold attachment factor B1 K63R, Q15424” registered an abundance fitness of -0.144 ± 0.055.

As to “Scaffold attachment factor B1 K63T, Q15424”, the abundance fitness is -0.238 ± 0.081.

Substance “Scaffold attachment factor B1 K63V, Q15424” gave an abundance fitness of -0.185 ± 0.056.

Consider “Scaffold attachment factor B1 K63W, Q15424”, for which the abundance fitness is -0.398 ± 0.057.

In the case of “Scaffold attachment factor B1 K63Y, Q15424”, the abundance fitness was -0.42 ± 0.067.

Consider “Scaffold attachment factor B1 L31A, Q15424”, for which the abundance fitness was -0.333 ± 0.069.

Consider “Scaffold attachment factor B1 L31C, Q15424”, for which the abundance fitness is -0.553 ± 0.069.

For “Scaffold attachment factor B1 L31D, Q15424”, the abundance fitness was -0.498 ± 0.075.

In the case of “Scaffold attachment factor B1 L31E, Q15424”, the abundance fitness is -0.496 ± 0.076.

The substance “Scaffold attachment factor B1 L31F, Q15424” yielded an abundance fitness of -0.417 ± 0.098.

For the substance “Scaffold attachment factor B1 L31G, Q15424”, the abundance fitness is -0.536 ± 0.06.

“Scaffold attachment factor B1 L31H, Q15424” had an abundance fitness of -0.575 ± 0.072.

On to “Scaffold attachment factor B1 L31I, Q15424”, for which the abundance fitness was -0.17 ± 0.06.

For the substance “Scaffold attachment factor B1 L31K, Q15424”, the abundance fitness was -0.66 ± 0.093.

On to “Scaffold attachment factor B1 L31M, Q15424”, for which the abundance fitness is -0.338 ± 0.087.

Consider “Scaffold attachment factor B1 L31P, Q15424”, for which the abundance fitness was -0.748 ± 0.071.

On to “Scaffold attachment factor B1 L31Q, Q15424”, for which the abundance fitness was -0.623 ± 0.08.

Substance “Scaffold attachment factor B1 L31R, Q15424” had an abundance fitness of -0.509 ± 0.051.

“Scaffold attachment factor B1 L31S, Q15424” gave an abundance fitness of -0.547 ± 0.068.

For “Scaffold attachment factor B1 L31T, Q15424”, the abundance fitness is -0.53 ± 0.1.

Substance “Scaffold attachment factor B1 L31V, Q15424” returned an abundance fitness of -0.188 ± 0.06.

“Scaffold attachment factor B1 L31W, Q15424” displayed an abundance fitness of -0.628 ± 0.052.

The substance “Scaffold attachment factor B1 L31Y, Q15424” gave an abundance fitness of -0.471 ± 0.07.

With “Scaffold attachment factor B1 L34A, Q15424”, the abundance fitness was -0.482 ± 0.064.

In turn, “Scaffold attachment factor B1 L34C, Q15424” yielded an abundance fitness of -0.321 ± 0.079.

Substance “Scaffold attachment factor B1 L34D, Q15424” returned an abundance fitness of -0.632 ± 0.081.

As to “Scaffold attachment factor B1 L34E, Q15424”, the abundance fitness was -0.719 ± 0.084.

“Scaffold attachment factor B1 L34F, Q15424” returned an abundance fitness of -0.212 ± 0.06.

Turning to “Scaffold attachment factor B1 L34G, Q15424”, the abundance fitness is -0.576 ± 0.056.

Turning to “Scaffold attachment factor B1 L34I, Q15424”, the abundance fitness was -0.433 ± 0.096.

“Scaffold attachment factor B1 L34M, Q15424”: the abundance fitness was -0.067 ± 0.083.

Substance “Scaffold attachment factor B1 L34N, Q15424” came in with an abundance fitness of -0.496 ± 0.078.

Take “Scaffold attachment factor B1 L34P, Q15424”: the abundance fitness is -0.619 ± 0.074.

“Scaffold attachment factor B1 L34Q, Q15424” registered an abundance fitness of -0.527 ± 0.087.

“Scaffold attachment factor B1 L34R, Q15424”: the abundance fitness is -0.554 ± 0.053.

As to “Scaffold attachment factor B1 L34S, Q15424”, the abundance fitness was -0.433 ± 0.065.

The substance “Scaffold attachment factor B1 L34T, Q15424” gave an abundance fitness of -0.452 ± 0.066.

For “Scaffold attachment factor B1 L34V, Q15424”, the abundance fitness is -0.738 ± 0.058.
